In US20230087785A1, “Leucine-Rich Repeat Kinase 2 Allosteric Modulators” (VIB VZW, priority 2020, published 2023):

B1: Nb42: LRRK2-specific Nanobody, SEQ ID NO: 6 (protein)
VHH: MAQVQLVESGGGLVQAGGSLRLSCAASGDVNYAVGWFRQAPRKEREFVAAINWRGDNTDYTDSVKGRFTISRDNAKNTVYLQMNSLKPEDTAVYYCAAKSAPYWYSDIAPDYWGQGTQVTVSS
modifications: Nanobody CA14259
B2: Nb23: LRRK2-specific Nanobody, SEQ ID NO: 3 (protein)
VHH: MAQVQLVESGGGLVQAGGSLRLSCAASGRTFSRYTMGWFRQAPGKDREFVARITTSGAVTTYADSAKGRFTISRDNAKNTVYLQMNTLKPEDTAVYYCAAGQGQLSSQSRFVDYWGQGTQVTVSS
modifications: Nanobody CA13612
B3: Nb22: LRRK2-specific Nanobody, SEQ ID NO: 9 (protein)
VHH: MAQVQLVESGGGLVQAGGSLRLSCAASGRTFSSYTMGWFRQAPGKEREFVAAIRWSGGSTYYADSVKGRFTISRDNAKNTVYLQMNSLKPEDTAVYYCAASDRGGFIATSGGWMDYWGKGTQVTVSS
modifications: Nanobody CA13611
B4: Nb1: LRRK2-specific Nanobody, SEQ ID NO: 1 (protein)
VHH: MAQVQLVESGGGLVQAGGSLRLSCVASGRIFSGNAMGWYRQAPGRQRELVAGITNGGYTNYRQFVKGRFTISRDNAKRTVYLQMNSLKPEDTAVYYCNALDREARQVDYWGQGTQVTVSS
modifications: Nanobody CA12610
B5: Nb6: LRRK2-specific Nanobody, SEQ ID NO: 2 (protein)
VHH: MAQVQLVESGGGLVQAGGSLRLSCAASGSIFSPTAMGWYRQAPGKERELVAGITSGGYTNYRNFARGRFTISRDNAKKTVYLQMNSLNPEDTAVYYCNTLTISWSWGQGTQVTVSS
modifications: Nanobody CA12618

Molecular target: T1, LRRK2(G2019S) (Homo sapiens, UniProt Q5S007, G2019S/M2397T/R50H)
T1 construct: SF tag (FLAG + Twin-Strep); expressed in transfected cells; host or cells: HEK 293T
Assay: In cellulo phospho-Rab / LRRK2 autophosphorylation assay in HEK293T cells
Format: cell-based
Parameters: key to Functional Group (see FIG. 2d): Group 1: group 1: Nbs that inhibit both LRRK2 autophosphorylation and Rab10 phosphorylation in cells; Group 2: group 2: Nbs that inhibit only Rab10 phosphorylation; Group 3: group 3: Nbs that activate LRRK2 kinase activity; Group 4: group 4: Nbs that have no consistent/clear effect on LRRK2 kinase activity
Conditions: for LRRK2 autophosphorylation at position S1292 / influence on LRRK2 kinase activity compared to the controls / Rab10 phosphorylation at position T72: HEK 293T cells co-expressing LRRK2(G2019S), Rab29 and Nb-GFP; for influence on LRRK2 kinase activity compared to the controls: Western blot; for Functional Group (see FIG. 2d): classification by effect on in cellulo LRRK2(G2019S) kinase activity; for Rab10 phosphorylation at position T72: endogenous Rab10
Method in brief: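 Cells co-transfected (PEI) with SF-tagged LRRK2(G2019S), FLAG-HA Rab29 and Nb-GFP fusions, lysed after 48 hrs. Western blot read LRRK2 pS1292 and endogenous Rab10 pT72 with site-specific antibodies, referenced to total LRRK2 and Rab10; ECL chemiluminescence on film.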

T1 sequence (Q5S007 whole entry R50H/G2019S/M2397T): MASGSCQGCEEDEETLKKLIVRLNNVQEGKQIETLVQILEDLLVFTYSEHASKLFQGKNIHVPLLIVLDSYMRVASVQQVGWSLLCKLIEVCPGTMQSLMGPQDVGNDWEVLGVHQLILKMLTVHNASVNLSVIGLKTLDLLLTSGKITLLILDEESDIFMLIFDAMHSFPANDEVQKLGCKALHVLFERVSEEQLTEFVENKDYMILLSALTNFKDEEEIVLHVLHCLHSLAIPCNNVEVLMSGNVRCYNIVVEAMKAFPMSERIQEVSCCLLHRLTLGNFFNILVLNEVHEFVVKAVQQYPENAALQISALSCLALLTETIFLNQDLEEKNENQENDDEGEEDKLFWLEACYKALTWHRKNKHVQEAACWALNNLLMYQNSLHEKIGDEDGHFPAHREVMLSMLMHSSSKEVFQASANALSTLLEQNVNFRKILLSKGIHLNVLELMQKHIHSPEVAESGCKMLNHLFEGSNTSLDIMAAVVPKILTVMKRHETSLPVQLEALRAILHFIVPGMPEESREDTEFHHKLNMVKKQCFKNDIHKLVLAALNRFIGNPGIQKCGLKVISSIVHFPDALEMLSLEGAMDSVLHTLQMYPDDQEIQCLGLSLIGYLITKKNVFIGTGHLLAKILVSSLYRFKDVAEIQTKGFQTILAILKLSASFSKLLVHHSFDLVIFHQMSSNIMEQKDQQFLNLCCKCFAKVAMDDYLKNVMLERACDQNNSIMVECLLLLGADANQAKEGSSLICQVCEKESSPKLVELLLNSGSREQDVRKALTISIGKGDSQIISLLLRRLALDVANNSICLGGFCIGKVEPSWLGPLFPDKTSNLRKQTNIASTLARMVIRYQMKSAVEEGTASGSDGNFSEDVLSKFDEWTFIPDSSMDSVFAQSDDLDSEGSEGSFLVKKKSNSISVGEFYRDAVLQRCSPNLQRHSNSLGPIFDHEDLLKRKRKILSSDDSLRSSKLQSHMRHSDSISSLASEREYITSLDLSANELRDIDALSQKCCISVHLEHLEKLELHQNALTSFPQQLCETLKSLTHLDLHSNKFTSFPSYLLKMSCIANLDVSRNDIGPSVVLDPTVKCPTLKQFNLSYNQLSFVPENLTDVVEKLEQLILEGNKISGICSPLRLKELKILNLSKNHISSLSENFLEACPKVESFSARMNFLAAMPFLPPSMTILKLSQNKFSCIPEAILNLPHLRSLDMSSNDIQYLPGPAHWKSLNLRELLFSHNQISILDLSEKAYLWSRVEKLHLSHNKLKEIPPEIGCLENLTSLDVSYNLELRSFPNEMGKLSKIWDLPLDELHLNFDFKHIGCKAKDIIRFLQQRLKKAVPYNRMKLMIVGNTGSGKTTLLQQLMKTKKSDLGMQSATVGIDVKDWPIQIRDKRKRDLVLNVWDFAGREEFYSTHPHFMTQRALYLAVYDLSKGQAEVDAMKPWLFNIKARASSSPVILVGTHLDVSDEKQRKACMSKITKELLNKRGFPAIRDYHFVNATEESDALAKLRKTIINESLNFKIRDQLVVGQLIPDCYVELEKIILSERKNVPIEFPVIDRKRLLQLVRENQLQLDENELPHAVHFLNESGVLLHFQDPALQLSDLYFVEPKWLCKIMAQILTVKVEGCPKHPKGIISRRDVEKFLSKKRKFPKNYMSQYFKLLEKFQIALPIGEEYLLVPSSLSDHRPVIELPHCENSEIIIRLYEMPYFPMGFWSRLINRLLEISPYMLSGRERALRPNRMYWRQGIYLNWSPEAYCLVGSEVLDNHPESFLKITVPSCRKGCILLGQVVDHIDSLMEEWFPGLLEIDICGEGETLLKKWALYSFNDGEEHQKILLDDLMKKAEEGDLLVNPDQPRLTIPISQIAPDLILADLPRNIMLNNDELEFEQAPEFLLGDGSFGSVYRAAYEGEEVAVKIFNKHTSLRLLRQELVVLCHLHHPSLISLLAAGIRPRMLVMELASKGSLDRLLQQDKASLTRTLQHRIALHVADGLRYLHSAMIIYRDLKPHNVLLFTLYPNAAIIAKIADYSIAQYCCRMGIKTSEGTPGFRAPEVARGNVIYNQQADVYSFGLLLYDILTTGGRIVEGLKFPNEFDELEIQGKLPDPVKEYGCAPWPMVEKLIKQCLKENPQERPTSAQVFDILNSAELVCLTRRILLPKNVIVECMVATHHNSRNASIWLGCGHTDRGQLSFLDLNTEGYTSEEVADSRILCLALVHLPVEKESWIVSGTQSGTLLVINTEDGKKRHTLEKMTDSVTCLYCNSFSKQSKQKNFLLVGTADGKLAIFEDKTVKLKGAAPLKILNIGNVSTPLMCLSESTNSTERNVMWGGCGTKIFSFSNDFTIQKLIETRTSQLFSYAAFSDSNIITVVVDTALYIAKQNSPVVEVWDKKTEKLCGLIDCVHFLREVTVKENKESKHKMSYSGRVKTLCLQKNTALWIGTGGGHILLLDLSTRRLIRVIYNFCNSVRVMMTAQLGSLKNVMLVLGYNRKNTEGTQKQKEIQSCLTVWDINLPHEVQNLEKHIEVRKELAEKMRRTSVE

Molecule	LRRK2 autophosphorylation at position S1292	influence on LRRK2 kinase activity compared to the controls	Functional Group (see FIG. 2d)	Rab10 phosphorylation at position T72
B1	inhibit both Rab10 phosphorylation and LRRK2 autophosphorylation at S1292	strongly decreased LRRK2 autophosphorylation and/or Rab10 phosphorylation	Group 1	inhibit both Rab10 phosphorylation and LRRK2 autophosphorylation at S1292
B2	inhibit both Rab10 phosphorylation and LRRK2 autophosphorylation at S1292	strongly decreased LRRK2 autophosphorylation and/or Rab10 phosphorylation	Group 1	inhibit both Rab10 phosphorylation and LRRK2 autophosphorylation at S1292
B3		significant increase of LRRK2 kinase activity	Group 3	activating Rab10 phosphorylation in cells
B4	inhibit both Rab10 phosphorylation and LRRK2 autophosphorylation at S1292	strongly decreased LRRK2 autophosphorylation and/or Rab10 phosphorylation	Group 1	inhibit both Rab10 phosphorylation and LRRK2 autophosphorylation at S1292
B5	inhibit both Rab10 phosphorylation and LRRK2 autophosphorylation at S1292	strongly decreased LRRK2 autophosphorylation and/or Rab10 phosphorylation	Group 1	inhibit both Rab10 phosphorylation and LRRK2 autophosphorylation at S1292
